Assay results taken from the supplement of paper PMC10899765.

Columns and labels:
Conditions in all cases: 20 nM; 72 h
MCF10A [1] = experiment: 5+ nucleoli phenotype percent effect (relative to siNT 0% and siKIF11 100%); higher = more cells with five or more nucleoli
Description: (§1)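 After 72 h, cells were fixed and stained with Hoechst and anti-fibrillarin, and nucleoli per nucleus were counted with CellProfiler. Values are plate-adjusted percent effect for the one-nucleolus and 5+ nucleoli phenotypes, normalised to siNT (0%) and to the positive controls siNOL11 or siKIF11 (100%), as the mean of biological triplicates. Percent viability is the nuclei count relative to siNT.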

MCF10A [2] = experiment: percent viability (nuclei count relative to siNT); higher = more viable cells
Description: as §1

MCF10A [3] = experiment: one-nucleolus phenotype percent effect (relative to siNT 0% and siNOL11 100%); higher = more cells with one nucleolus (ribosome biogenesis inhibition)
Description: as §1

Sequence | 5+ nucleoli phenotype percent effect (MCF10A [1]) [%] | percent viability (MCF10A [2]) [%] | one-nucleolus phenotype percent effect (MCF10A [3]) [%]
GGGUUUGUAGCUUUGCUGGCAUG [hsa-miR-5087] | 6.11 | 26.6 | 4.68
CACAGGACUGACUCCUCACCCCAGUG [hsa-miR-4700-3p] | 43.2 | 83.5 | -16
CUCGAGUUGGAAGAGGCG [hsa-miR-4444] | -29.6 | 109 | 19.6
UGCACGGCACUGGGGACACGU [hsa-miR-3177-3p] | -18 | 20.3 | 33.1
ACAGCAGGCACAGACAGGCAGU [hsa-miR-214-3p] | -1.88 | 19.3 | 13.3
AUCCUCUCUUCCCUCCUCCCAG [hsa-miR-7111-3p] | -40 | 47.3 | 3.35
ACCCGCCCGUCUCCCCACAG [hsa-miR-7108-3p] | 28.2 | 110 | -20.7
UUGUGGGGUUGGAGAGCUGGCUG [hsa-miR-6796-5p] | -31.5 | 17.2 | 45.3
UUGUUCUUUGGUCUUUCAGCCA [hsa-miR-4677-5p] | -26.7 | 42.5 | 20.3
CUAUGGCGAGACUGGCAUGUACUC [hsa-miR-8074] | 26.4 | 110 | -12.8
UCUGGGUGCAGUGGGGGUU [hsa-miR-6776-5p] | -32.7 | 2.41 | 24.4
AAUAAUAUCACAGUAGGUGUAC [hsa-miR-5692c] | 46 | 133 | -21.3
GAGCUUGGAUGAGCUGGGCUGA [hsa-miR-4538] | -29.6 | 25.3 | 14.4
CUCGUGGGCUCUGGCCACGGCC [hsa-miR-3677-3p] | -9.65 | 56.2 | -2.83
GGUAGAUUUUCCUUCUAUGGU [hsa-miR-376a-2-5p] | 62 | 71.5 | -26.7
AGAGUCGGCGACGCCGCCAGC [hsa-miR-4785] | -30.3 | 49.5 | 25.1
CUCUCUACUGACUUGCAACAUA [hsa-miR-4684-5p] | 33.1 | 72.5 | -6.81
CCAGUCCUGUGCCUGCCGCCU [hsa-miR-1910] | 6.81 | 100 | 3.9
CAACAAAUCCCAGUCUACCUAA [hsa-miR-7-2-3p] | 4.35 | 104 | -10.8
CAGUGCAAUGAUGAAAGGGCAU [hsa-miR-130b-3p] | 59.9 | 77 | -14.8
UGACAGCGCCCUGCCUGGCUC [hsa-miR-2277-3p] | -19.4 | 79 | 2.24
AAUGGCUGUCCGUAGUAUGGUC [hsa-miR-889-5p] | -28.6 | 24.5 | 43.3
CGCCCCUCCUGCCCCCACAG [hsa-miR-4749-3p] | 64.3 | 115 | -18.4

Sequence | 5+ nucleoli phenotype percent effect (MCF10A [1]) [%] | percent viability (MCF10A [2]) [%] | one-nucleolus phenotype percent effect (MCF10A [3]) [%]
ACAGCCCAGCAGUUAUCACGGG [hsa-miR-5685] | -0.657 | 57.8 | -1.32
AGGCAGGUUAUCUGGGCUG [hsa-miR-4736] | 13.2 | 12 | 19.8
CAGCACCCUGUGGCUCCCACAG [hsa-miR-6871-3p] | 26.8 | 50.1 | -5.35
CCUCACCACCCCUUCUGCCUGCA [hsa-miR-6511b-3p] | 22.9 | 69.7 | -22.7
AGGCCUGUGGCUCCUCCCUCAG [hsa-miR-6735-3p] | 15.7 | 50.4 | -1.31
AAAAGUGAUUGCAGUGUUUG [hsa-miR-548ah-5p] | 17.4 | 114 | -15.3
CAGUGCAAUGAUAUUGUCAAAGC [hsa-miR-301b] | 45.2 | 95.6 | -11.1
AACCCAGUGGGCUAUGGAAAUG [hsa-miR-4482-5p] | -41 | 24.6 | 59.8
GCGGAGAGAGAAUGGGGAGC [hsa-miR-5739] | 53.5 | 110 | -16.4
UCCUCUUCUCCCUCCUCCCAG [hsa-miR-877-3p] | -15.4 | 59 | 6.33
AAAAGCUGGGUUGAGAGGGU [hsa-miR-320c] | -0.437 | 64.7 | 1.49
AAGUGCCUCCUUUUAGAGUGUU [hsa-miR-519e-3p] | -1.33 | 40.9 | -10.9
ACUGCCCCAGGUGCUGCUGG [hsa-miR-324-3p] | 37.7 | 68 | -7.87
UGACCCACCCCUCUCCACCAG [hsa-miR-7114-3p] | -4.79 | 35.3 | 6.96
UCUAAAGACUAGACUUCGCUAUG [hsa-miR-4744] | 32 | 106 | -22
AGCACACUGAGCGAGCGGAC [hsa-miR-8064] | -14.8 | 44.2 | -0.792
UAUUGCACUCGUCCCGGCCUCC [hsa-miR-92b-3p] | 2.75 | 76.9 | -7.61
AGGGAGAAAGCUAGAAGCUGAAG [hsa-miR-6878-5p] | 44.5 | 72.6 | -18.3
CGGAUGAGCAAAGAAAGUGGUU [hsa-miR-1255b-5p] | 45.2 | 64.1 | -12.5
UUGGGGAUUGGGUCAGGCCAGU [hsa-miR-6857-5p] | -18 | 6.01 | 29.9
UAGCAGCACGUAAAUAUUGGCG [hsa-miR-16-5p] | -19.3 | 15.8 | 27.2
CCCUGCUGCCUUCACCUGCCAG [hsa-miR-6893-3p] | -2.09 | 50.3 | -5.77
